Key:
Experiment in all cases: holdup assay
Design in all cases: key: below the threshold = too weak to quantify, mostly under pKd 3.1 to 4
Settings in all cases: plain residues with an end cap or a label only (N-terminal biotin on a linker: ado-ado)
[1] = molecular target: T1, CARD11, Q9BXL7
T1 sequence (Q9BXL7 662-765, limits assumed, looked up): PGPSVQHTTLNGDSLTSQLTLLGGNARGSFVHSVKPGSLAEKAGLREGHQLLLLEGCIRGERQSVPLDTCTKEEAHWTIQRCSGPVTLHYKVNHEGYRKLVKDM

[2] = molecular target: T2, DFNB31_3, Q9P202
T2 sequence (Q9P202 811-907, limits assumed, looked up): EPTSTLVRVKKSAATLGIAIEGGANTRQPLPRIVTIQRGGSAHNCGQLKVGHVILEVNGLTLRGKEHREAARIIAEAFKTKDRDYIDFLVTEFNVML

[3] = molecular target: DLG1_3, Q12959
Sequence of DLG1_3, Q12959 (Q12959 457-571): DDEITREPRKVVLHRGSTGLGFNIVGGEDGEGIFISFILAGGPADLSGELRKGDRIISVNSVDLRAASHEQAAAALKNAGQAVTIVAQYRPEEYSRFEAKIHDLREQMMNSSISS

[4] = molecular target: DLG2_3, Q15700
[5] = molecular target: FRMPD2_3, Q68DX3
Sequence of FRMPD2_3, Q68DX3 (Q68DX3 1073-1166): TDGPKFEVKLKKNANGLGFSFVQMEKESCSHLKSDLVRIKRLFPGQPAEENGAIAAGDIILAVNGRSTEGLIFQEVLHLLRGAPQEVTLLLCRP

[6] = molecular target: GOPC, Q9HD26
[7] = molecular target: GORASP1, Q9BQQ3
Sequence of GORASP1, Q9BQQ3 (Q9BQQ3 1-208): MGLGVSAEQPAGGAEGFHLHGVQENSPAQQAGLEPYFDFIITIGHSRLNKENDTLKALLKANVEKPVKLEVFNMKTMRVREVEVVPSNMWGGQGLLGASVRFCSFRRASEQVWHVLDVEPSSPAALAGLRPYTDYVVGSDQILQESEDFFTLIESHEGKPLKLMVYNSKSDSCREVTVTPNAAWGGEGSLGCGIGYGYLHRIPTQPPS

[8] = molecular target: GRASP, Q7Z6J2
Sequence of GRASP, Q7Z6J2 (Q7Z6J2 96-193): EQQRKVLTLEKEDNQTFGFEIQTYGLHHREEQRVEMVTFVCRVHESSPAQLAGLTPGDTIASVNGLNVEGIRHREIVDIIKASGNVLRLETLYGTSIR

[9] = molecular target: T3, GRIP1_4, Q9Y3R0
T3 sequence (Q9Y3R0 467-571, limits assumed, looked up): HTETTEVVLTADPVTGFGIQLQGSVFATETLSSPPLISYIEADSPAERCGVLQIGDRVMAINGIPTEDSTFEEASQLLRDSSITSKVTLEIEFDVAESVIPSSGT

[10] = molecular target: T4, GRIP1_7, Q9Y3R0
T4 sequence (Q9Y3R0 999-1096, limits assumed, looked up): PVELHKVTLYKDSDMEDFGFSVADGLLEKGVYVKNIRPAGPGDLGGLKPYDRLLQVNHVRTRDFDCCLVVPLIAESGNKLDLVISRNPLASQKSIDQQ

[11] = molecular target: GRIP2_4, Q9C0E4
Sequence of GRIP2_4, Q9C0E4 (Q9C0E4 446-548): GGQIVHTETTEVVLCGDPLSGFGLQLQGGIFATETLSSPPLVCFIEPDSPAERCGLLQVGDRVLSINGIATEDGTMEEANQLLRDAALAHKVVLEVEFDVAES

[12] = molecular target: GRIP2_6, Q9C0E4
Sequence of GRIP2_6, Q9C0E4 (Q9C0E4 648-740): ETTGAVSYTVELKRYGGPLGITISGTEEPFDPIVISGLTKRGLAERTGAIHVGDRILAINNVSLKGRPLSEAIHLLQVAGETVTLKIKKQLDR

[13] = molecular target: T5, HTRA3, P83110
T5 sequence (P83110 354-453, limits assumed, looked up): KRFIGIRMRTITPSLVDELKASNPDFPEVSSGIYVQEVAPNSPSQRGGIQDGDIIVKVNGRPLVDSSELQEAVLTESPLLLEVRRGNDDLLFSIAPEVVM

[14] = molecular target: IL16_3, Q14005
Sequence of IL16_3, Q14005 (Q14005 1107-1207): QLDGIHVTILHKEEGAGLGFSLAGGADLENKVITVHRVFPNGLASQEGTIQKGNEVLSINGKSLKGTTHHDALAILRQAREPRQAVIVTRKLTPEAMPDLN

[15] = molecular target: Inadl_10, Q8NI35
Sequence of Inadl_10, Q8NI35 (Q8NI35 1673-1763): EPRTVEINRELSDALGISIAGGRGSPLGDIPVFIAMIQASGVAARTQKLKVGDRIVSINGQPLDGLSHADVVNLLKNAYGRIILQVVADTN

[16] = molecular target: Inadl_2, Q8NI35
Sequence of Inadl_2, Q8NI35 (Q8NI35 238-335): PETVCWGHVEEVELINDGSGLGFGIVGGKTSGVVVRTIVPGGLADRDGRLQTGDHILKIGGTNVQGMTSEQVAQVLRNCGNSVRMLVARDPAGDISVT

[17] = molecular target: Inadl_6, Q8NI35
Sequence of Inadl_6, Q8NI35 (Q8NI35 1058-1167): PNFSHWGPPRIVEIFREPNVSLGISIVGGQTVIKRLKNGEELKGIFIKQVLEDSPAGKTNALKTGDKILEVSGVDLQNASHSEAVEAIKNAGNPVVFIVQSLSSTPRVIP

[18] = molecular target: T6, LRRC7, Q96NW7
T6 sequence (Q96NW7 1440-1537, limits assumed, looked up): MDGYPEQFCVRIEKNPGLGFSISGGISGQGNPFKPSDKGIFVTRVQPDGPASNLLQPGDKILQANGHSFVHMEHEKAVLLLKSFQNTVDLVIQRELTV

[19] = molecular target: MAGI3_2, Q5TCQ9
Sequence of MAGI3_2, Q5TCQ9 (Q5TCQ9 398-503): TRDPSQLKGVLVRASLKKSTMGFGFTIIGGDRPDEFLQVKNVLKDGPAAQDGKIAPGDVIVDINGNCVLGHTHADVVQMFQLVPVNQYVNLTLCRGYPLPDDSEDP

[20] = molecular target: T7, NHERF3_3, Q5T2W1
T7 sequence (Q5T2W1 238-333, limits assumed, looked up): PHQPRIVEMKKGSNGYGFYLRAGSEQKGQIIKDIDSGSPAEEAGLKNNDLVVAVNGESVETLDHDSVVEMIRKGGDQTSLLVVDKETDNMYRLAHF

[21] = molecular target: T8, RHPN1, Q8TCX5
T8 sequence (Q8TCX5 508-602, limits assumed, looked up): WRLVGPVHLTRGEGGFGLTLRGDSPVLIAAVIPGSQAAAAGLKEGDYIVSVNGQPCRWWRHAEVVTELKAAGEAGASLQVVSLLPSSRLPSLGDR

[22] = molecular target: SCRIB_1, Q14160
Sequence of SCRIB_1, Q14160 (Q14160 718-814): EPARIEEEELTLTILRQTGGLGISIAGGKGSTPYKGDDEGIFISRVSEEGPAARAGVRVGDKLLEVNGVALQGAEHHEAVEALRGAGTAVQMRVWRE

[23] = molecular target: T9, SNTA1, Q13424
T9 sequence (Q13424 82-180, limits assumed, looked up): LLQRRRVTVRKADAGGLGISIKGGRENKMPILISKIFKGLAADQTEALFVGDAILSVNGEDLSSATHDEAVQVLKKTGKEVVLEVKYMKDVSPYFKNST

[24] = molecular target: T10, SNTB1, Q13884
T10 sequence (Q13884 107-205, limits assumed, looked up): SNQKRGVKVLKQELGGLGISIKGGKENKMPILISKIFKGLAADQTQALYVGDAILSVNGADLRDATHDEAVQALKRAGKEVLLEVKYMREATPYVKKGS

[25] = molecular target: SNX27, Q96L92
[26] = molecular target: T11, TIAM2, Q8IVF5
T11 sequence (Q8IVF5 885-986, limits assumed, looked up): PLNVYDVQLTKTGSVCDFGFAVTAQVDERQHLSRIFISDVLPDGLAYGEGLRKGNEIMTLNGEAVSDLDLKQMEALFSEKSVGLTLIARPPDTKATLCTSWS

APIAGFSSFV [SDK2, Q58EX2] was tested, and the pKd [1] was “below the threshold”, the pKd [2] was “below the threshold” and the pKd [3] was “below the threshold”. The pKd [4] was “below the threshold”, the pKd [5] was “below the threshold” and the pKd [6] was 4.13. The pKd [7] was 3.75, the pKd [8] was 4.44 and the pKd [9] was “below the threshold”. For the same binder, the pKd [10] was “below the threshold”, the pKd [11] was “below the threshold” and the pKd [12] was “below the threshold”. The pKd [13] was 4.49, the pKd [14] was “below the threshold” and the pKd [15] was 4.25. For the same binder, the pKd [16] was “below the threshold”, the pKd [17] was 3.72 and the pKd [18] was 3.65. The pKd [19] was 4.27, the pKd [20] was “below the threshold” and the pKd [21] was 4.76. For the same binder, the pKd [22] was “below the threshold”, the pKd [23] was 4.09 and the pKd [24] was 3.97. The pKd [25] was 4.38 and the pKd [26] was “below the threshold”.

With LAHVKHKEQI [AQP3, Q92482] the pKd [1] was “below the threshold”, the pKd [2] was “below the threshold” and the pKd [3] was “below the threshold”. The pKd [4] was “below the threshold”, the pKd [5] was “below the threshold” and the pKd [6] was “below the threshold”. The pKd [7] was “below the threshold”, the pKd [8] was “below the threshold” and the pKd [9] was “below the threshold”. The pKd [10] was “below the threshold”, the pKd [11] was “below the threshold” and the pKd [12] was “below the threshold”. The pKd [13] was “below the threshold”, the pKd [14] was “below the threshold” and the pKd [15] was “below the threshold”. For the same binder, the pKd [16] was “below the threshold”, the pKd [17] was “below the threshold” and the pKd [18] was “below the threshold”. The pKd [19] was “below the threshold”, the pKd [20] was “below the threshold” and the pKd [21] was “below the threshold”. For the same binder, the pKd [22] was “below the threshold”, the pKd [23] was “below the threshold” and the pKd [24] was “below the threshold”. The pKd [25] was “below the threshold” and the pKd [26] was “below the threshold”.

REEPDHSTEV [CCRL2, O00421] was tested, and the pKd [1] was “below the threshold”, the pKd [2] was “below the threshold” and the pKd [3] was “below the threshold”. For the same binder, the pKd [4] was “below the threshold”, the pKd [5] was “below the threshold” and the pKd [6] was 3.56. For the same binder, the pKd [7] was “below the threshold”, the pKd [8] was 3.77 and the pKd [9] was “below the threshold”. The pKd [10] was 3.56, the pKd [11] was “below the threshold” and the pKd [12] was 3.54. For the same binder, the pKd [13] was 3.48, the pKd [14] was “below the threshold” and the pKd [15] was “below the threshold”. The pKd [16] was “below the threshold”, the pKd [17] was “below the threshold” and the pKd [18] was “below the threshold”. The pKd [19] was “below the threshold”, the pKd [20] was “below the threshold” and the pKd [21] was 3.83. For the same binder, the pKd [22] was 4.03, the pKd [23] was 4.45 and the pKd [24] was 4.36. For the same binder, the pKd [25] was 4.73 and the pKd [26] was “below the threshold”.

In the case of RFQQRMQTHV [KIRREL1, Q96J84], the pKd [1] is reported as “below the threshold”, the pKd [2] is reported as 3.62 and the pKd [3] is reported as 3.68. The pKd [4] was 4.48, the pKd [5] was “below the threshold” and the pKd [6] was 3.91. The pKd [7] was “below the threshold”, the pKd [8] was 4.35 and the pKd [9] was “below the threshold”. The pKd [10] was “below the threshold”, the pKd [11] was “below the threshold” and the pKd [12] was 3.54. The pKd [13] was “below the threshold”, the pKd [14] was “below the threshold” and the pKd [15] was “below the threshold”. The pKd [16] was “below the threshold”, the pKd [17] was “below the threshold” and the pKd [18] was “below the threshold”. The pKd [19] was 5.37, the pKd [20] was “below the threshold” and the pKd [21] was 3.91. For the same binder, the pKd [22] was 4.25, the pKd [23] was “below the threshold” and the pKd [24] was “below the threshold”. For the same binder, the pKd [25] was 3.85 and the pKd [26] was 3.97.

For QSYPSKHDYV [CLDN18, P56856], the pKd [1] was “below the threshold”, the pKd [2] was “below the threshold” and the pKd [3] was 3.49. The pKd [4] was “below the threshold”, the pKd [5] was “below the threshold” and the pKd [6] was “below the threshold”. The pKd [7] was 3.74, the pKd [8] was 3.71 and the pKd [9] was “below the threshold”. For the same binder, the pKd [10] was “below the threshold”, the pKd [11] was “below the threshold” and the pKd [12] was “below the threshold”. The pKd [13] was 4.19, the pKd [14] was “below the threshold” and the pKd [15] was “below the threshold”. The pKd [16] was “below the threshold”, the pKd [17] was “below the threshold” and the pKd [18] was “below the threshold”. The pKd [19] was “below the threshold”, the pKd [20] was “below the threshold” and the pKd [21] was “below the threshold”. For the same binder, the pKd [22] was “below the threshold”, the pKd [23] was 3.58 and the pKd [24] was “below the threshold”. For the same binder, the pKd [25] was 3.83 and the pKd [26] was “below the threshold”.
